Patent US9315838B2, “Method to increase algal biomass and enhance its quality for the production of fuel” (priority 2012, dated 2016)
Entries after “also recorded” stand apart in the source; their conditions may differ.

Key:
[1] = system: Chlamydomonas reinhardtii; assay: TAG accumulation (ratio of fatty acids in TAG over total fatty acids) after N deprivation with DCMU; format: cell-based; conditions: 2 d of N deprivation, FIG. 8E
Protocol: FIG. 8. […] Two representative cultures per line are shown.
Strains and growth conditions.
(§1) Lipid extraction, thin-layer chromatography (TLC) of neutral lipids, transesterification and gas-liquid chromatography were done according to (Moellering and Benning 2010). Briefly, lipids were extracted from cell pellets with methanol, chloroform, 88% formic acid (2:1:0.1 by volume). To the extract 0.5 volume of 1M KCl, 0.2 M H3PO4 was added, mixed and phases were separated by low speed centrifugation. For TAG quantification, lipids were resolved by TLC on Silica G60 plates (EMD chemicals, #5721-7, http://www.emdchemicals.com) developed in petroleum ether-diethyl ether-acetic acid (80:20:1 by volume). Polar lipids were separated on the same plate using chloroform-methanol-acetic acid-H2O (75:13:9:3 by volume) as solvent. To analyze lyso-glycolipids during for the PGD1 assay, acetone-toluene-H2O (91:30:7.5 by volume) was used, instead. Brief exposure to iodine vapor was employed for visualization of lipids. Transesterification of each lipid and separation of fatty acid methyl esters by GLC were as previously described (Rossak et al. 1997). Transesterification was conducted on pellets with a known number of cells to determine the cellular total fatty acid content. Staining with α-naphtol (Benning et al. 1995) was used for the PGD1 assay to detect galactoglycerolipids.

[2] = system: Chlamydomonas reinhardtii pgd1 mutant; assay: Thiobarbituric acid reactive substances (TBARS) analysis following N deprivation; conditions: DCMU 2 μM, FIG. 8D
[3] = system: Chlamydomonas reinhardtii pgd1 mutant; assay: Chlorosis, chlorophyll content and cell viability of N-deprived cultures with DCMU; conditions: DCMU 2 μM added to N-deprived (TAP-N) cultures
[4] = PGD1 lipase assay on MGDG; format: biochemical
Protocol: as §1
BL21 (codon+) E. coli strains harboring the empty pMK1006 vector or the pMK1006-PGD1 construct were grown to log phase at 37° C. Isopropyl-β-D-thiogalactopyranoside was added to the final concentration of 0.5 mM to induce protein production. Cells were harvested after 3 hours of induction. To extract proteins, cells were resuspended in lysis buffer (20 mM Tris-HCl, pH 7.9, 10% glycerol, 150 mM NaCl, 1 mM dithiothreitol). The mixture was then frozen in liquid nitrogen and thawed at room temperature for three cycles and sonicated to lyse cells. Lysates were centrifuged at 21,000×g for 15 minutes to obtain inclusion bodies. Inclusion bodies were washed with 5 mL/g wash buffer (4 M urea, 0.5 M NaCl, 1 mM EDTA, 1 mg/ml sodium deoxycholate, 50 mM Tris-Cl pH 8.0) twice and denatured with solubilization buffer (8 M urea, 50 mM Tris-Cl pH 8.0, 10 mM dithiothreitol) by incubation at 50° C. for 20 min. Supernatant was collected after centrifugation at 21,000×g for 30 minutes and subjected to Ni-NTA affinity purification as described before (Lu and Benning 2009). His-tagged PGD1 protein was eluted with solubilization buffer containing 200 mM imidazole. […] After 1 hour incubation at 4° C., proteins were aliquoted and kept frozen at −80° C. Protein concentration was determined with Bio-Rad Protein Assay Dye Reagent Concentrate (http://www.bio-rad.com) according to the manufacturer's instructions.
To prepare lipid substrates from Chlamydomonas or E. coli cells, lipids were extracted from 48 hours N-deprived Chlamydomonas cells or IPTG induced E. coli cells expressing cucumber MGDG synthase (Shimojima et al. 1997) and resolved by polar TLC. Corresponding bands were isolated and lipids were recovered from silica gel by extraction with chloroform-methanol (1:1 by volume). For each PGD1 reaction, 75 nmol lipid substrates extracted from Chlamydomonas, or E. coli cells expressing the cucumber MGDG synthase were used. […] Per assay 10 μg refolded PGD1 protein (quantified as stated above) in 50 μL protein refolding buffer was added. […]

[5] = PGD1 lipase assay on DGDG; format: biochemical, Chlamydomonas
Protocol: (§2) Lipid extraction, thin-layer chromatography (TLC) of neutral lipids, transesterification and gas-liquid chromatography were done according to (Moellering and Benning 2010). Briefly, lipids were extracted from cell pellets with methanol, chloroform, 88% formic acid (2:1:0.1 by volume). To the extract 0.5 volume of 1M KCl, 0.2 M H3PO4 was added, mixed and phases were separated by low speed centrifugation. For TAG quantification, lipids were resolved by TLC on Silica G60 plates (EMD chemicals, #5721-7, http://www.emdchemicals.com) developed in petroleum ether-diethyl ether-acetic acid (80:20:1 by volume). Polar lipids were separated on the same plate using chloroform-methanol-acetic acid-H2O (75:13:9:3 by volume) as solvent. […]
(§3) BL21 (codon+) E. coli strains harboring the empty pMK1006 vector or the pMK1006-PGD1 construct were grown to log phase at 37° C. […] Protein concentration was determined with Bio-Rad Protein Assay Dye Reagent Concentrate (http://www.bio-rad.com) according to the manufacturer's instructions.
(§4) To prepare lipid substrates from Chlamydomonas or E. coli cells, lipids were extracted from 48 hours N-deprived Chlamydomonas cells or IPTG induced E. coli cells expressing cucumber MGDG synthase (Shimojima et al. 1997) and resolved by polar TLC. […] Per assay 10 μg refolded PGD1 protein (quantified as stated above) in 50 μL protein refolding buffer was added. […]

[6] = PGD1 lipase assay on other major membrane lipids; format: biochemical, Chlamydomonas
Protocol: as §2, §3, §4

Row | Molecule | pgd1 TAG phenotype ([1]; pgd1 mutant, DCMU 2 μM) | TAG levels of the wild-type parental strain ([1]; wild-type parental strain dw15-1, DCMU 2 μM) | burst of TBARS in the pgd1 mutant [2] | chlorosis ([3]; FIG. 8A, B) | viability loss ([3]; FIG. 8C) | apparent MGDG concentration up to which hydrolysis was linear in reaction velocity ([4]; E. coli-derived MGDG, 3 hours incubation, FIG. 15B) | time at which lyso-MGDG was detectable ([4]; E. coli-derived MGDG, FIG. 15A) | positional preference of acyl group hydrolysis ([4]; E. coli-derived MGDG, compared with Rhizopus lipase digestion, FIG. 7H, 7I) | activity on E. coli-derived MGDG versus mature MGDG from Chlamydomonas ([4]; intensity of the lyso-MGDG band, FIG. 7B) | lyso-MGDG product generated ([4]; mature MGDG isolated from Chlamydomonas (predominantly 18:3/16:4), TLC, FIG. 7B) | formation of lyso-DGDG ([5]; DGDG extracted from Chlamydomonas, sugar-specific staining, FIG. 7C) | product formed in competition experiment ([5]; E. coli-derived MGDG and Chlamydomonas-derived DGDG offered in equal amounts) | generation of lyso-DGTS and lyso-PtdEtn ([6]; iodine staining, compared with Rhizopus lipase, FIGS. 16A and 16B) | Lyso-SQDG hydrolysis ([6]; sugar-specific staining, FIG. 16D)
1 | CN(C)C(=O)Nc1ccc(Cl)c(Cl)c1 [DCMU, 3-(3,4-dichlorophenyl)-1,1-dimethylurea] | did not rescue | decrease; also recorded: lower levels of TAG | reverted | suppressed | suppressed |  |  |  |  |  |  |  |  | 
2 | PGD1: recombinant Chlamydomonas galactoglycerolipid lipase (SEQ ID NO:1), His-tagged, purified from E. coli inclusion bodies and refolded (protein, listed as Chlamydomonas reinhardtii, His tag) MSQLLSHFVRVPTFASPDQVLREARDKERELQNARAPTDVSGFLAPVGVWELKHLRKLSSLTSLTYYMHLVTPRRLQLMHGLDLVVTSRACDVRPYEHNRTAEECGADGDGMAVSFAEARQVYAELKRGTGGASGSGSNGAAAAPVAVAAGVSNIVALPRELPFVPLPGGATEGGEAGAEAAAGAAAAAAAAAGEGTGPGAQGQGAGGLQLPLASTEAIGRMLRSPAEVVSAKLAEAALAASAAAAASPLGAAAESFYAGLASLPIPLAGGLVGANNKAANTLLAPPNGAAASSSGGGGGSGGAAAASEVVGSSRGAQGADPADPGAPNTSGKATAASIAAMATAELRSRRLGGTGPAKTGGSGAASSGSSSGGIGAGGMAPVTAGGMRLSPAATAFSAPPAATVSSLASTDAGTALVPVASSSAASLTFSSSSAYSCPSEWFVVDDPASATRIFVIQGSDTLDHWKLNLTFDPVVFEEPALGVKVHRGVYEAALVLYERFLPLVYEHLEASPFSKVTFTGHSIGGSMATLLMLMYRNRGVLPPHSIATVYTFGAPAVFCQQQQPAVADASSACCNGSSSNGSSTPASGSSSPRSGSPGSASASSLPAGSGSGAGGMSLWALGLSGFGMGGASLAGGGSTSAPSSTAGLASVDGGAVAAGGGGSGFNSSGLGFMSVEDPQAVSMPPGAAQAPSPASAPAPTAGPGHNSHSSHSKAGPAAAKSCACGVDGLLTRLGLAPHVVRNVVMARDVVPRAFACDYSLVADILKGWGPAFREHCCLNRHGRKHLYYFVGRMCILQPDAWHSFVGGDPEHPMLPPGPELYALAEPEDAAAARAHYPALSDLPILNAVTSNGHTRGSGGNGANAAVNAAVNASGPSAAASGGGGGSQQPTAAAAVPSTANFGTALVASAAQRERDARGGGSRLQPRSVVEAVWEIMDNPHPLETLADPGAYLASGSISRYHNPEHYTKALGRLTHLKRLAERRQHPHGQAQQKQAQPQAGEGGIRSMFAGRNIRSFGGGVRSGSGSGSAGRRGLLHQQAASNGTAADAVLASGAAGAAAAAWGSAPQLADLVSGNGGRASAGYEGGVWDSSDGLDLHLSDFMGASAVGAADPHACR |  |  |  |  |  | ≤ 300 µM | 30 min | prefers acyl groups at the sn-1 position | more active | rather faint | no formation of lyso-DGDG was detected | only lyso-MGDG was formed | detectable by iodine staining, but at much lower levels | not detectable
